This assay deals with GST-PpROP4CA (G15V). In words: pull-down (MBP pull-down, Coomassie-stained SDS-PAGE, band quantification). The settings on record: chain shown with the change; three replicates; parent: est. 0.31; read off a plot.

Among the data in paper PMC10625565 are other: Protein ratio values, retold here.

Sequence of GST-PpROP4CA (G15V) (chain, as listed by the source G15V): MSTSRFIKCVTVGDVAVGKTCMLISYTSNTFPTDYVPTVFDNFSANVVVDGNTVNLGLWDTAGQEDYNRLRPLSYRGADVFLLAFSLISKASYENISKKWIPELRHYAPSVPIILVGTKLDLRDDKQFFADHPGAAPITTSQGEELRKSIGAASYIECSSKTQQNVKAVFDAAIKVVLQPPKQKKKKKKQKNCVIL

B1: MBP-PpRopGAP1 (wild type), A0A2K1KNT6 R239L (protein)
chain: MTQVLPTQIHLGSFTPDQSESEDYVNALHYVSDTDTDGYSGNHASPMILGDATISIRELCKEPEARKSGLSHSSSFSSITRGRWGEIGARSRNGSLNRRHSSFRSGSFNRSNNDQERERSAQLSLVALLLATVRRSVLTMCQDVEEGDESSLEIGWPTDVQHVAHVTFDRYNGFLGLPQEFEVEVPGRVPSASQSVFGVSAESMQCSYDHNGNSVPTILLLMQERLYHQGGLKAEGIFLINAENSHHEHVRDQLNKGIVPMDIDSYCLAGLIKAWFRELPQGVLDVLTPEQVLECHTEEESVALVKLLPPTQAALLDWAVNLMADVVQDEVVNKMNARNIAMVFAPNMTQMADPLTALMHAVQVMNLLKTLILRTLKDREEAILEQAQGLTRAEASEGDEPDSECNNVVLTSQERQNSLREEEASKVDCDEYSQRILIPVKRNTKVNSISKSGNLVNTIDHNNQRVEAW
Take B1: the other: Protein ratio worked out at 0.25.

B2: MBP-PpRopGAP1 (wild type), A0A2K1KNT6 H165A (protein)
chain: MTQVLPTQIHLGSFTPDQSESEDYVNALHYVSDTDTDGYSGNHASPMILGDATISIRELCKEPEARKSGLSHSSSFSSITRGRWGEIGARSRNGSLNRRHSSFRSGSFNRSNNDQERERSAQLSLVALLLATVRRSVLTMCQDVEEGDESSLEIGWPTDVQHVAAVTFDRYNGFLGLPQEFEVEVPGRVPSASQSVFGVSAESMQCSYDHNGNSVPTILLLMQERLYHQGGLKAEGIFRINAENSHHEHVRDQLNKGIVPMDIDSYCLAGLIKAWFRELPQGVLDVLTPEQVLECHTEEESVALVKLLPPTQAALLDWAVNLMADVVQDEVVNKMNARNIAMVFAPNMTQMADPLTALMHAVQVMNLLKTLILRTLKDREEAILEQAQGLTRAEASEGDEPDSECNNVVLTSQERQNSLREEEASKVDCDEYSQRILIPVKRNTKVNSISKSGNLVNTIDHNNQRVEAW
Take B2: the other: Protein ratio stood at 0.1.
